# Laboratory results: patent publication US20250197496A1 (EVOLVELMMUNE THERAPEUTICS, published 2025)
# Residue numbers refer to the chain shown, from its start.
# B1: E12 (antibody, V domains shown)
# VH: QVQLVQSGAEVKKPGASVKVSCKASGYTFTNYDINWVRQAPGQGLEWMGWIYPGDGSTYYNEKFKGRVTMTRDTSTSTVYMELSSLRSEDTAVYYCARSGDYGLYYFDYWGQGTLVTVSS
# VL: EIVLTQSPATLSLSPGERATLSCRASQSIGTSIHWYQQKPGQAPRLLIYFASESISGIPARFSGSGSGTDFTLTISSLEPEDFAVYYCQQSNSWPLYTFGGGTKVEIK
# notes: humanized; also called humanized ULBP2 antibody E12; anti-ULBP2/5/6 antibody
# B2: A06 (antibody, V domains shown)
# VH: EVQLVQSGAEVKKPGESLKISCKGSGYAFSTSWMNWVRQMPGKGLEWMGRIYPGDGDTNYNGNFKGQVTISADKSISTAYLQWSSLKASDTAMYYCARGGELRLEAMDSWGQGTLVTVSS
# VL: EIVMTQSPATLSLSPGERITLSCSASSSIHSNYLHWYQQKPGQAPRLLIYRTSNLASGIPARFSGSGSGTDFTLTISSLQPEDFAVYYCQQGFSIPFTFGQGTKLEIK
# notes: humanized; also called humanized ULBP2 antibody A06; anti-ULBP2 antibody
# Experiments:
# Human ULBP5-His = target: T1, Human ULBP5-His (human, UniProt Q6H3X3 26-223, limits assumed); experiment: BLI, antibody on AHC sensor
# T1 construct: bought (R&D Systems), His tag; also called RAET1G
# T1 sequence: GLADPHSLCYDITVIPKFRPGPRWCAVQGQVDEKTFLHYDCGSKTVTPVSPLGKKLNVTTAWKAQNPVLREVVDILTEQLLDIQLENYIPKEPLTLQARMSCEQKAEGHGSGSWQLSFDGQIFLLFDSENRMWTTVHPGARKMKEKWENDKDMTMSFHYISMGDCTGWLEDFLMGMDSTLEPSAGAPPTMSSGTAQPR
# Procedure: (§1) Bio-layer interferometry (BLI) was performed on the Octet RED384 (Sartorius). […] Subsequently, dissociation was measured over 600 seconds. The kinetic and affinity constants are determined by fitting the data to a 1:1 binding model using the Octet analysis software.
# [1] = target: T2, Human ULBP2 (recombinant) (human, UniProt Q9BZM5 26-217); experiment: BLI, antibody on AHC sensor
# T2 construct: bought (R&D Systems) as ULBP2-Fc or ULBP2-His; also called recombinant ULBP2
# T2 sequence: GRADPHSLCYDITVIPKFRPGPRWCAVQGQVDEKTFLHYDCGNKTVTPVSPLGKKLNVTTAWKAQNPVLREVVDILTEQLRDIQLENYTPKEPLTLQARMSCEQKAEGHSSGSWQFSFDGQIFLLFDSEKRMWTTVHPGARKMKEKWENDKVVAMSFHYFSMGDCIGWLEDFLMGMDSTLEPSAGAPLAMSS
# Procedure: as §1
# Human ULBP6-His = target: T3, Human ULBP6-His (human, UniProt Q5VY80 26-218, limits assumed); experiment: BLI, antibody on AHC sensor
# T3 construct: bought (R&D Systems), His tag; also called RAET1L
# T3 sequence: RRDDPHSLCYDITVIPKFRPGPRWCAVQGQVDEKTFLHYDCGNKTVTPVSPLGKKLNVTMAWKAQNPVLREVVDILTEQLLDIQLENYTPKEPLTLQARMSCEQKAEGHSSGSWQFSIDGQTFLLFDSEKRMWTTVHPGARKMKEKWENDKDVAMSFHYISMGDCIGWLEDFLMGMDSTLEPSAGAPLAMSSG
# Procedure: as §1
# [2] = target: T2, Human ULBP2 (recombinant); experiment: SPR, biotinylated antigen on SA chip
# Procedure: Surface plasmon resonance (SPR) was performed on the Biacore 8K+ (Cytiva). Biotin labelled proteins were captured using the Sensor chip SA (Cytiva). […] The association contact and dissociation time are 60-120 seconds and 120-420 seconds respectively. The chip surface is regenerated by injecting 10 mM glycine, pH 1.5, at a flow rate of 30 μL/min for 60 seconds. The kinetic and affinity constants are determined by fitting the data to a 1:1 binding model using the Biacore insight evaluation software.
# [3] = target: T4, human ULBP2 (26-216) displayed on yeast (human, UniProt Q9BZM5 26-216); experiment: flow cytometry on yeast displaying ULBP2; unstained control 385
# T4 construct: also called Wild type; wild-type ULBP2
# T4 sequence: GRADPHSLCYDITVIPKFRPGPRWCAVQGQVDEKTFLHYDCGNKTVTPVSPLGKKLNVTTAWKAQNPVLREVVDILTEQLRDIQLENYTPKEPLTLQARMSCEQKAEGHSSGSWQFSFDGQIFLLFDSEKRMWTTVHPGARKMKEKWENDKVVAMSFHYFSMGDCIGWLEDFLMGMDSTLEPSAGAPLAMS
# [4] = target: T5, human ULBP2 (26-216) R106L displayed on yeast (human, UniProt Q9BZM5 26-216); experiment: as above
# T5 construct: also called Human ULBP2 R106L; ULBP2 R106L
# T5 chain: T4 sequence with R81L
# [5] = target: T6, human ULBP2 (26-216) P115A on yeast (human, UniProt Q9BZM5 26-216); experiment: yeast display FACS, 1 nM
# T6 construct: fused to V5 tag and Aga2
# T6 chain: T4 sequence with P90A
# [6] = target: T7, human ULBP2 (26-216) T102A on yeast (human, UniProt Q9BZM5 26-216); experiment: yeast display FACS, 1 nM
# T7 construct: fused to V5 tag and Aga2
# T7 chain: T4 sequence with T77A
# [7] = target: T8, human ULBP2 (26-216) L105A on yeast (human, UniProt Q9BZM5 26-216); experiment: yeast display FACS, 1 nM
# T8 construct: fused to V5 tag and Aga2
# T8 chain: T4 sequence with L80A
# [8] = target: T9, human ULBP2 (26-216) I108A on yeast (human, UniProt Q9BZM5 26-216); experiment: yeast display FACS, 1 nM
# T9 construct: fused to V5 tag and Aga2
# T9 chain: T4 sequence with I83A
# [9] = target: T5, human ULBP2 (26-216) R106L displayed on …; experiment: flow cytometry on yeast displaying ULBP2
binder,measurement,setting,value
B1,Kd,Human ULBP5-His,0.345 nM
same,Kd,[1],0.198 nM
same,Kd,Human ULBP6-His,0.456 nM
same,Kd,[2],0.22 nM
same,koff,[2],0.000211 s⁻¹
same,kon,[2],957000 M⁻¹ s⁻¹
same,MFI,[3],5180
same,MFI,[4],9160
B2,Gate 1 Freq. of Total,[5],64.5%
same,Gate 2 Freq. of Total,[5],0.35%
same,Gate 3 Freq. of Total,[5],0.00694%
same,Gate 1 Freq. of Total,[6],0.13%
same,Gate 2 Freq. of Total,[6],0.28%
same,Gate 3 Freq. of Total,[6],1.79%
same,Gate 1 Freq. of Total,[7],37.6%
same,Gate 2 Freq. of Total,[7],32.2%
same,Gate 3 Freq. of Total,[7],0.31%
same,Gate 1 Freq. of Total,[8],0.42%
same,Gate 2 Freq. of Total,[8],38.9%
same,Gate 3 Freq. of Total,[8],24.5%
same,binding result,[9],no binding
same,binding result,Human ULBP5-His,no binding (tested: 250 nM (highest concentration tested))
same,Kd,[1],0.532 nM
same,binding result,Human ULBP6-His,no binding (tested: 250 nM (highest concentration tested))
same,Kd,[2],0.162 nM
same,koff,[2],0.000214 s⁻¹
same,kon,[2],1.32e+06 M⁻¹ s⁻¹
same,MFI,[3],8030
same,MFI,[4],828
